Reference: IntAct's records for PubMed 15361138

B1: Transcription factor MYB75 (Arabidopsis thaliana (Mouse-ear cress)), Q9FE25 (parent)
chain: MEGSSKGLRKGAWTTEEDSLLRQCINKYGEGKWHQVPVRAGLNRCRKSCRLRWLNYLKPSIKRGKLSSDEVDLLLRLHRLLGNRWSLIAGRLPGRTANDVKNYWNTHLSKKHEPCCKIKMKKRDITPIPTTPALKNNVYKPRPRSFTVNNDCNHLNAPPKVDVNPPCLGLNINNVCDNSIIYNKDKKKDQLVNNLIDGDNMWLEKFLEESQEVDILVPEATTTEKGDTLAFDVDQLWSLFDGETVKFD
partner: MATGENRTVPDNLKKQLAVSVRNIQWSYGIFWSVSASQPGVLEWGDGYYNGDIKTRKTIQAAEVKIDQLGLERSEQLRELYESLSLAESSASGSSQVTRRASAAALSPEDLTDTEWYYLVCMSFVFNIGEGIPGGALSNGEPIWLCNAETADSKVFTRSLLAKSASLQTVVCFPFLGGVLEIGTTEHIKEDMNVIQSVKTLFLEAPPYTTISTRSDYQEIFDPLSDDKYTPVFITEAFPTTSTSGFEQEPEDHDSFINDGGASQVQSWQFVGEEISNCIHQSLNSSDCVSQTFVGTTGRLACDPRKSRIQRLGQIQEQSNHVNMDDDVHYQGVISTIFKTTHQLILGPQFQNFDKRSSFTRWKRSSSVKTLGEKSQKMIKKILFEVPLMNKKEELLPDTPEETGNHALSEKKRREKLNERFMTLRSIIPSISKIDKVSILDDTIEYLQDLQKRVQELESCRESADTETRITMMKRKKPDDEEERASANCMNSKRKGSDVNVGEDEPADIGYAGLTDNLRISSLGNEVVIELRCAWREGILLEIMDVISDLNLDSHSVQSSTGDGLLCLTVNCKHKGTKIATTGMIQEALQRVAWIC

Variants of: B1
Settings: with egl1_arath BHLH2, Q9CAD0

Effect of a mutation on the interaction, decreasing interaction:
MEGSSKGLRKGAWTTEEDSLLRQCINKYGEGKWHQVPVRAGLNRCRKSCRLRWLNYLKPSIKRGKLSSDEVDILLRLHRLLGNRWSLIAGRLPGRTANDVKNYWNTHLSKKHEPCCKIKMKKRDITPIPTTPALKNNVYKPRPRSFTVNNDCNHLNAPPKVDVNPPCLGLNINNVCDNSIIYNKDKKKDQLVNNLIDGDNMWLEKFLEESQEVDILVPEATTTEKGDTLAFDVDQLWSLFDGETVKFD [L73I]
MEGSSKGLRKGAWTTEEDSLLRQCINKYGEGKWHQVPVRAGLNRCRKSCRLRWLNYLKPSIKRGKLSSDEVDLLLELHRLLGNRWSLIAGRLPGRTANDVKNYWNTHLSKKHEPCCKIKMKKRDITPIPTTPALKNNVYKPRPRSFTVNNDCNHLNAPPKVDVNPPCLGLNINNVCDNSIIYNKDKKKDQLVNNLIDGDNMWLEKFLEESQEVDILVPEATTTEKGDTLAFDVDQLWSLFDGETVKFD [R76E]
MEGSSKGLRKGAWTTEEDSLLRQCINKYGEGKWHQVPVRAGLNRCRKSCRLRWLNYLKPSIKRGKLSSDEVDLLLKLHRLLGNRWSLIAGRLPGRTANDVKNYWNTHLSKKHEPCCKIKMKKRDITPIPTTPALKNNVYKPRPRSFTVNNDCNHLNAPPKVDVNPPCLGLNINNVCDNSIIYNKDKKKDQLVNNLIDGDNMWLEKFLEESQEVDILVPEATTTEKGDTLAFDVDQLWSLFDGETVKFD [R76K]
MEGSSKGLRKGAWTTEEDSLLRQCINKYGEGKWHQVPVRAGLNRCRKSCRLRWLNYLKPSIKRGKLSSDEVDLLLRLHSLLGNRWSLIAGRLPGRTANDVKNYWNTHLSKKHEPCCKIKMKKRDITPIPTTPALKNNVYKPRPRSFTVNNDCNHLNAPPKVDVNPPCLGLNINNVCDNSIIYNKDKKKDQLVNNLIDGDNMWLEKFLEESQEVDILVPEATTTEKGDTLAFDVDQLWSLFDGETVKFD [R79S]
MEGSSKGLRKGAWTTEEDSLLRQCINKYGEGKWHQVPVRAGLNRCRKSCRLRWLNYLKPSIKRGKLSSDEVDLLLRLHRALGNRWSLIAGRLPGRTANDVKNYWNTHLSKKHEPCCKIKMKKRDITPIPTTPALKNNVYKPRPRSFTVNNDCNHLNAPPKVDVNPPCLGLNINNVCDNSIIYNKDKKKDQLVNNLIDGDNMWLEKFLEESQEVDILVPEATTTEKGDTLAFDVDQLWSLFDGETVKFD [L80A]
MEGSSKGLRKGAWTTEEDSLLRQCINKYGEGKWHQVPVRAGLNRCRKSCRLRWLNYLKPSIKRGKLSSDEVDLLLRLHRLLGNRWSLIAGALPGRTANDVKNYWNTHLSKKHEPCCKIKMKKRDITPIPTTPALKNNVYKPRPRSFTVNNDCNHLNAPPKVDVNPPCLGLNINNVCDNSIIYNKDKKKDQLVNNLIDGDNMWLEKFLEESQEVDILVPEATTTEKGDTLAFDVDQLWSLFDGETVKFD [R91A]
MEGSSKGLRKGAWTTEEDSLLRQCINKYGEGKWHQVPVRAGLNRCRKSCRLRWLNYLKPSIKRGKLSSDEVDLLLRLHRLLGNRWSLIAGDLPGRTANDVKNYWNTHLSKKHEPCCKIKMKKRDITPIPTTPALKNNVYKPRPRSFTVNNDCNHLNAPPKVDVNPPCLGLNINNVCDNSIIYNKDKKKDQLVNNLIDGDNMWLEKFLEESQEVDILVPEATTTEKGDTLAFDVDQLWSLFDGETVKFD [R91D]
